Measured values: patent US6680176B2, “Identification of candidate ligands which modulate antigen presenting cells” (The United States of America, as represented by the …, priority 1999, dated 2004)

Test system: CD8 killer T cells
Assay: Replacement of T help by soluble factors in CD4 depleted anti-H-Y killer cultures (JAM Test)
Type: cell-based, mouse
Conditions: CD4 depleted primed B6 female spleen cells, male stimulators
Source text: Two weeks to 1 year after in vivo priming, spleens were removed from the responders and depleted for CD4 T cells using the Midi MACs system (Miltenyi Biotec, Germany) with MACS magnetic beads conjugated to the anti-mouse CD4 monoclonal antibody, GK1.5. By FACS analysis with the non-competing anti-CD4 antibody RM4-4 (Pharmingen, San Diego, Calif.), the depleted populations routinely contained less than 0.2% CD4 cells.
Two weeks or later after the last in vivo immunization, 4×10^6 spleen cells were restimulated in 2 ml cultures with 2×10^6 irradiated B6 male spleen cells or 1.5×10^5 of the various populations of dendritic cells, with or with out an exogenous source of mouse IL-2, (10% Rat Con A supernatant, from which the ConA has been removed, Collaborative Biomedical Products, Bedford Mass.). Six days later the cultures were tested for their ability to kill male and female targets using the JAM Test. (55).

B1: IL-12: cytokine IL-12 added to the cultures (protein, UniProt P43431 23-215; P43432 23-335, looked up)
Interleukin-12 subunit alpha: RVIPVSGPARCLSQSRNLLKTTDDMVKTAREKLKHYSCTAEDIDHEDITRDQTSTLKTCLPLELHKNESCLATRETSSTTRGSCLPPQKTSLMMTLCLGSIYEDLKMYQTEFQAINAALQNHNHQQIILDKGMLVAIDELMQSLNHNGETLRQKPPVGEADPYRVKMKLCILLHAFSTRVVTINRVMGYLSSA
Interleukin-12 subunit beta: MWELEKDVYVVEVDWTPDAPGETVNLTCDTPEEDDITWTSDQRHGVIGSGKTLTITVKEFLDAGQYTCHKGGETLSHSHLLLHKKENGIWSTEILKNFKNKTFLKCEAPNYSGRFTCSWLVQRNMDLKFNIKSSSSSPDSRAVTCGMASLSAEKVTLDQRDYEKYSVSCQEDVTCPTAEETLPIELALEARQQNKYENYSTSFFIRDIIKPDPPKNLQMKPLKNSQVEVSWEYPDSWSTPHSYFSLKFFVRIQRKKEKMKETEEGCNQKGAFLVEKTSTEVQCKGGNVCVQAQDRYYNSSCSKWACVPCRVRS
restoration of killer response in the absence of CD4 helpers by addition to the culture: did not replace the activity of helpers
